Assay: label from the status in PepcDB records

Row | Sequence | protein production
1 | MTWLPFIIIIPLFGAFSMPIVSLLKGKAKEIWATIISFTTLMVGIQVFREVWNRGTIVYALGSETPFGKANFPIRIVWEVDKFGAIMVLIITLVSFLAVLYSIEYMKHDTGLEKYYTLILILELGMLGIAITGDIFNFYVFLEIMSIASYALVAFRNDTWEAIEAGIKYMFVGSLASSLVLLGIALLYGQYGTLTMGYLAVKMSENPTIVAKIALSLFLGGLLFKSGASPVHMWLADAHPAAPSSISAMLSGLVIKVGGIYAIARVVFSIFLPAINLATVGWLVIIFACITLIVGNAMAVVQEDMKRLLAYSSVGQIGYILLGLGIGMVAYGSKIGELALAGAIYHIVNHAMMKALLFLVAGAVLHELGTRNLNELSGLAKTMPKTTFAFLIGAAAIVGMPPLNGFASKWLIYESSALFNPIIGSIAIIGTAFCTAAYVRVLFTFFGRPNEKVMRAKDPGALMLIPMFILVIAIILMGIFPWQISDKIMIPAARNLWDITSYVMTLMGGG | failed
2 | MKKCFELTPCLLAFLCITSCVEDVDNERSKGMFSASQSGFSTIEVYDLGPLNKIDLSIAKAGLEDTGGTVTFSVEQSLLDSLNNADGTSYQLLPPECYTIENATYSVSPGGDRRVTGGSLVYDPHKIYNLCGFDELKYVLPLRVSSTGTPMNSDRTATLYGFIVKEAIVRLASTGGDFVVEGGTTTSPMNLDTEISFENEWDLTTSFATKGADYVDNYNSANSTYYIPLPSDFYTLPDVTIAKGKTTGGSAISLLGETLPPGNYLLPVSLGGLSGQGDASINIDKETVANYFVIKQGGPINRDHWTVTANTEEKTGEVSAAYPHNGQTISLIDGEINTFWHSKWQGGEVAPPYEIILDMGKENSVSQLGLIARQNALTSMNLEIYAGDDGETWNLIGKYFFDGSIKTEQMVPVKACDARWIRIYIPTLGSGSSVGHLAEIYVYGTDK | failed
3 | MTKKEKGTMMTLAAGLAWGISGISGQYLMSHGVHVNLLTSLRLLITGIFLLSLARSKQKEHLVAAWKQPKFLKQVLLFSIFGLVLNQYAFLRAIHLTNAGTATVLQYMAPILILSIVCILNRQRPTSFEIIAIAMAILGTYMIATHGKLGSLAITPKGLMWGLGSAITYSIYILLPVKLIHEWGSTIVIGSGMFIGGILFSLVTKAWQYPLQINVMSILAYIGIIGIGTIFAYTFFLKGVSIVGAVKGSLLASVEPVSSVFLTVLVLGEIFYPIDLLGMLFIFLAVTLISYKDLIALKKMKRVR | failed
4 | MQGFLRSLFFGVKKIPKPFAPLVEKGVLKEALELKKDRYFLKEGFDIGKVEKVKDKAFFISLAKNYPKDPLIKNLPPSFKTDALILCQIECSKKRPIAFFKAALLNADHTMIAYLAKKNNQIVAIPFKEPFKKPVSLKHSQKSLLELPRHCVVKIDTKKREISEILGALEDPLIDENLSLSLFDRVKDFSKDCLNLAQHYAQLKASDFKDRINYSHIPFITIDPKDAKDFDDAIFYDQEKRVLFVAVADVSEFVPKHSSLDKEARVRGFSVYFPNSVYPMLPLSLSQGACSLKAFEKRLALVYEIPLDNLKNARLSQGVIEVRANCTYEEINHFLSANQSSLDKDLQQSLLGFLEMALKLKKERLKKGFNFNSFENKLYLNKEGRIEKIETEKESDAHTLIEEAMLLANQSSARLLDEHFHNKGIYRTHKEPSLEQQKRLYDKLFDYEIVRPKNMGFFPFLEHALKIAKEKSIEREVSRLIIKSQNLALYSPLQESHFGLGFASYTHFTSPIRRYSDLALHRLLKELLFYQAKGCSYLLEETPELCAELNALQKKAALIERDFIKRKFARLALELLEKEFLGVVLEVKDWVVVGLKEFIGLKVLVKTNKVFKPLEKVRVTITHADLILGQVRGEITERIKEHVS | failed
5 | MELETLFVIGMFLTFGALLMTGYPVAWVLGGTAVIWTVVGVVAVENFGANLWFDYQSSMGLVPERIWKVVSSETLVALPMFIFMGIMLDQSGVAERLMNSMVKLFGAVRGGYAVTVIVIGVLLAATTGIIGASVVLLGMLSLPVMMENKYDKGFAVGTACATGTLGILIPPSIMLVLMADRLAVPEASVGDLFMGAFFPGLMLGAMYVAYAIIRPMLQPNIAPVPEGTEKVSWAIVWDVAKAVVPTAALILGVLGSIFAGIATPTEASGVGALGALLLALMSGRLNLNVLNSSMQQTTRTAAFIFAIFLGATAFSVVLRGLGGDQVIEDALLGLPFGPYGVVLTILLGVFLLGFFLDWVEITLIILPLVAPVVQQLGFDLVWFTILFAMCLQTSFLTPPVGFALFYIKGVAPPEIKVTDIYRGVIPFIIIQLVALAIVFVVPEIATWLPGVAYD | failed
6 | MSDSLHTPEEPRPGPGEQLAHAHDGSLRHTRAKGEPRFPDGPKADPAGSHFERRIRSFQPRRSRVTAGQADALQRLWPKWGLDIDGHALDLTELFGNTHPVVLEIGFGMGEATARMAAEDPDTGILAVDVHTPGQGNLLNLADQHGLTNIRVANGDAIILLREMLPPDSLDGLRVYFPDPWPKKRHHKRRLIQPEFLTLAATRLRPGALVHCATDWEPYAEQMLDVLTAHPDFENTQPTGGYAPRPGFRPLTRFEGQGLDKGHVVNDLLFRRVQPRDQHRDLPPSATEAD | failed
7 | MEVSDGSSQVLNSMKHVASLRADEDPDETSLLLSSTLLDLVVFRLVLVLYCVRVLMLDQYQETIALSQEVMMEDGRREFNVPMNCPIPVVKRRMKAPKHVDEDLFKIFPQATTYLRQIQKGGGSGCFEFIRGEVCTKDLSQNNTFYFIF | failed
8 | MITSTNKEAYPNTLIVILGHDEGRSSFEEKEDVTRVTNDKGETIGFNFFNVDKLIDFDKLPNGPVKLSDDELEALNKKLAEVGFDDKLEYGKPTLVYGYVKTCEKHPDSDHLHVTTIEVGDGEEHQIVCGAPNIAQGQKVVVALPGTLMPNGAQIWPGKLRGVDSYGMICSARELGLPHAPQKRGIMVVPDSFEVGAEFEPTKCDELIASGEITLLEHHHHHH | not failed
9 | MINSGTLITKIEELQSTLAKMDIALGTVDEAIVWTDGTGQIQWCNTAFDHLMGKLHILILGKNLVELLPLHRNSQPLEVSHHPFTIIVATQQKFTDHYEFNQNGKWLHLEIMTSPLMNAQGAVLVIRDISDRHLQEQTLQQLNENLEKRVLERTQAVSLIN | failed
10 | MGKTMITRALWSYAHRYRPQERWGILKPMQSGTAVEIGDGDYYCQTLPLEQTPREVCPLSFAAPLAPPIAAQLENRRIDLAPLWQTYQQLQERFDYLLVEGIGGLGSPITWEWTVADLAAAWKLPIVLVATVRLGAIAQIVANIALARQYQLVIRGLILNCVSPCSDAEIEQWTPPVFLSRFTQVPVLGVLPYGQHSNEQLAAMVAEWPLDLLWR | failed
11 | MSLHDQRVHAERDPLDPQAHGLTITRIETIPMVAPLAREFRGSHYHMTHRATIVTRVHTDAGIIGEAYTGDEHETMFDIDRIIHEELAPTLIGQDAMAIERLWDSGYKVTFDILRDRRLGLVALAAVNTAIWDAVGKALKMPLWKLWGGYRNELPMIAIGGYYGEPLGSIADEMHNYQELGLAGVKFKVGGLSAAEDAARITAAREAAGDDFIICIDANQGYKPAVAVDLSRRIADLNIRWFEEPVEWHNDKRSMRDVRYQGSVPVCAGQTEFSASGCRDLMETGAIDVCNFDSSWSGGPTAWLRTAAIATSYDVQMGHHEEPQVSTHLLASQPHGTIAECFHPDRDPFWWNMITNRPKLNNGTLTLSDRPGLGWDLNWDYIDQYRVSKDEGHHHHHH | not failed
12 | KWIFREPSRTDGDDVYALITECPPLDINSSYCNFLQATHFSKTCVLAEKDGDLAGFISGYQEPDEPNTLFIWQVAVSPRYRGKGLAFSMLTTLLERKNLLHIEFIETTITKANNASWSLFKKIDAQYGNQGQVTTFLDKESHFKGKHDTEYLYRIPL | failed
13 | MAGTTEITTKPERVVVLDTGELDSVLSLGITPVGMTTTKGANPVPSYLADKVKDVERVGTINELNIEAIAALKPDLIIGSQLRADKLYPQLSDIAPTVFSIRPGSPWKENFLLVGEALGMEKEAEEKLNEYADRVAELKNNVPQNTEVSLVRFMPNKLRLYGNKSLIGVVLADAGLARPEKQNVDDLAVEISPENIDQAAGSVIFYTSYGKPDATGETAVVEGPAWKNLEAVAAGKAHRVNDDVWFLGLGPTGAMEIVSDLHDYLLEHHHHHH | not failed
14 | MEQVSKSHENKAEEQTEGVGLLERLFKLSQHKTTVKTELMAGLTTFVTMSYIMFLNPIIMSKTGMPFDGLFLATCLGAAIATILMGMYANWPVGLAPGMGLNAFFTFSVVGSMGYSWQIALGAVFLSGVIFVLMSVTRLREWMLDSIPMSLRLAMTAGVGLFLGFIGLRFTGIVVANPDNVVALADMTHFGFGQFGPEAPALGFLSFLLIAILSYRKVFGAVLIGIAVTTFIAFAMTWVLPTDFFVVAEAAKSFAPASGFVAYKGLLAIPEFSALEPILWKADIVGAFEVALIPVIVTFLFVNIFDTAGTLMGVAERANLQDENGKIEGLSKSLKADSISSVIGTAFGCPPVTSYVESAAGVAAGGRTGLTAVTIGLLFAAGVFFLPLAQMLPGFAVDGALIYVAMLMMSSLRGLDWDDLTEYAPAVCTTVMMAFTFSIANGIAFGFITYTVLKVGAGKSSQVSNGVWALTVLFVAKFIFLN | failed
15 | MDNGDWGYMMTDPVTLNVGGHLYTTSLTTLTRYPDSMLGAMFGGDFPTARDPQGNYFIDRDGPLFRYVLNFLRTSELTLPLDFKEFDLLRKEADFYQIEPLIQCLNDPKPLYPMDTFEEVVELSSTRKLSKYSNPVAVIITQLTITTKVHSLLEGISNYFTKWNKHMMDTRDCQVSFTFGPCDYHQEVSLRVHLMEYITKQGFTIRNTRVHHMSERANENTVEHNWTFCRLARKTDD | failed
16 | MNADEFVEAFNNAKDLTELELLAELGKSISDDLEGHEKGKVLGTLGNIYYALHRLKEAEEAYLEALNVYLKLSEEDEGFLPYVVGCLYNLGNLYQVSRKFAEAEKAYTDALKVLGDVRNDQRLAILTALGTMYAKLDMKEHAERCLVEAFEMAKVKGDARLLGTLLNNLAVVYQRGGRKREAAMLLKMALDALERVGEDLGIAAVLQNLLPYLDEDELRRVMERLESFGELPIDLKAKIAYFKARRAEEKGEDSAKHYMEAACLGFMAYRNFGFQSINFMHCLDKVIESDSELREDAVVLKKVILKYYYGSQKVEIDFDSRVGRMIKAVLEGDDIYEDGILEDTVRLIAEDLLKAGTKV | failed
17 | MTNSEVSTDLPDKPTSDNEQPDKATSDKEQLGKPPSDRDLRNPTSRLRARLQLIGGALASIAAIGAIAGGLVGYWTVWKTLRTDVFPDKQQTQREATARPDVAPRLSLVVLPFANLNNDPEQDYFADSITTDLTTDLAQMPGAFVIGRGTAFTFKNKQIDFKTLGKELGIRWAVQGAVRRNGDQIRVNVSLTDAASGRDIWSDRFDGDRTNLAALQDQITGRLARSLNIELMQAESRRSEKDQSRNPDAMDFTMRGWAKFYEPRSKTEIAQAKDLFDRALHLDPDNVDAMIAKAWCLAIAAGFRWSTSMAEDKEIATDLIDRALAKSSSNALAYVVKGDTLRVFGRPEEALPEYDAALEINPNFPIAYAQKGLALILSGRAREAFSPLQLALRLSPKDPIAVSWYYNLCHAHLHLQEYEEATKDCRRVININNAFWYAYVDLVSAYGASGQLEPARQSLTELNKIRPDFTIQWFREFGYGYSSNPQFRREFDEILDGLRKGGVREQ | failed
18 | MQKLFLTFFYSGSVKKASGTFGTIAALIPAFFILKYLGINTLFLLSILIFVASIRVIDDYEKKTGIHDDKHIVIDEVAGVFLACAIAASVENSIVNFILAFVLFRLFDITKPSIIGKIDKKVKGGLGVMLDDMLAGLFAGLLSAVIYGFLLKFNLVFWDINLKDLF | failed
19 | MSLSYVLPTLTYSLAASTLGLLQAIPGAFTGFRHTDSDSARGLLLGIFILTVSALLTLAVSAVFWLASFTLFRVLSRYREYAADRGAVAITGDPAALASALATIDDEMAAAPDHDLRAQDGGLDALYIAPIDETQFKDAPDFVANDVFPQTHPPTEARIERLEAMATEGPT | failed
20 | MQDLIKQYNTTLRQLREAQKDAKEEDVKVLTDMISDITYSLEWMKKARRPGNRRGVERLAAYQRERACDPLLMQRYFRSMDDNLYEWDNHQQEHSIGEWDKVRLEDALSLLTEREKEVYLMSRGYCLTYREIARYLDITCSTVQSMIERAEKKIARQVNESLFCNCG | failed
